Experimental data as given in patent publication US20250277020A1 (Boehringer Ingelheim, published 2025).
Residue numbers refer to the chain shown, from its start. Values joined by “and” are separate entries in the source; they are usually repeats but may differ in a detail not shown here. Equal values may be shown once. One block for each binder: values may come before it.

Columns and labels:
Full-length human CTGF [1] = target: T1, Full-length human CTGF (human, UniProt P29279 27-349); assay: SPR Biacore 8K+, mAb captured on Protein A/G, full length hCTGF as analyte
T1 construct: Corresponds to NCBI NP_001892.1 with the signal peptide omitted; purchased from R&D Systems; also called hCTGF full length; full length CTGF
T1 sequence: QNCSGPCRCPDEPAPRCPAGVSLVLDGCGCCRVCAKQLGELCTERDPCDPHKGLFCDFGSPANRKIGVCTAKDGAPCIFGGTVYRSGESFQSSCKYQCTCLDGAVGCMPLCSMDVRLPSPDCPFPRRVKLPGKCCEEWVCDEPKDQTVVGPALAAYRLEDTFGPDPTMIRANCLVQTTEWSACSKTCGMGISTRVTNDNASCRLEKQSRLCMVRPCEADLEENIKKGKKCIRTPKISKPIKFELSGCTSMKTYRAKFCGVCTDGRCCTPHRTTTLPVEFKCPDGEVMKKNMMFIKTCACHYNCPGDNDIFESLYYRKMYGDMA
Procedure: (§1) Binding affinity of anti-CTGF antibodies H1 (having the light chain of SEQ ID NO: 22 and the heavy chain of SEQ ID NO: 23), H2 (having the light chain of SEQ ID NO: 24 and the heavy chain of SEQ ID NO: 25), F1, and A97 for full length human CTGF or human CTGF N-terminal fragment are determined by surface plasmon resonance (SPR).
(§2) Surface plasmon resonance is conducted using a Biacore 8K+ (Cytiva). Protein A/G (Thermo Scientific) is amine coupled to CM5 Sensor S Chip (Cytiva). For binding to hCTGF N-terminal fragment (NTF), anti-CTGF antibody (1 μg/ml) is captured on the Protein A/G surface, followed by various concentrations of antigen (100 nM to 0.78 nM; 2-fold dilutions). For binding to hCTGF full length, anti-CTGF antibody (0.2 μg/ml) is captured followed by various concentrations of antigen (10 nM to 0.156 nM; 2-fold dilutions).

[2] = target: T2, Human N-terminal fragment of CTGF (CTGF-NTF) (human, UniProt P29279 27-180); assay: SPR Biacore 8K+, mAb captured on Protein A/G, hCTGF NTF as analyte
T2 construct: Recombinantly expressed; also called hCTGF NTF; CTGF N-terminal fragment
T2 chain: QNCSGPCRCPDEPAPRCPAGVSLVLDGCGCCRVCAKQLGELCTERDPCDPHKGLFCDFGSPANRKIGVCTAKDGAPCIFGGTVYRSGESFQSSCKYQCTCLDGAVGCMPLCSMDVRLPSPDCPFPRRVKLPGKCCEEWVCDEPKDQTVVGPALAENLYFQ
Procedure: as §1, §2

Full-length human CTGF [3] = target: T1, Full-length human CTGF; assay: SPR, full length CTGF; Table 15 screen of humanized variants, SPR on full length CTGF
Outline: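 Humanized antibody variants were made by co-expressing each of eight heavy-chain variable-region variants with each of sixteen light-chain variable-region variants in CHO cells, giving 128 combinations. Binding affinity (Kd) of each combination for full-length human CTGF was determined by surface plasmon resonance. The text gives no instrument, chip, concentrations, temperature, buffer, replicates or fitting model for this measurement.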

Full-length human CTGF [4] = target: T1, Full-length human CTGF; assay: SPR, full length CTGF

Kd (Full-length human CTGF [1]): 0.0983 nM and 0.098 nM
koff (Full-length human CTGF [1]): 0.000671 s⁻¹
kon (Full-length human CTGF [1]): 6.83e+06 M⁻¹ s⁻¹
Kd [2]: 8.82 nM and 8.8 nM
koff [2]: 0.0107 s⁻¹
kon [2]: 1.22e+06 M⁻¹ s⁻¹
B1: Antibody H1 (antibody, human IgG1, lambda, V domains shown)
VH: EVTLKESGPVLVKPTETLTLTCTVSGFSLSTFGVHWIRQPPGKGLEWLGVIWRRGGTDYNAAFMSRLTISKDTSKSQVVFTMTNMDPVDTATYYCARDGGFDYWGQGTTVTVSS
VL: ETVVTQEPSLTVSPGGTVTLTCRSSIGAVTTSNYANWVQQKPGQAFRGLIGGTSNRAPWTPARFSGSLLGGKAALTLSGVQPEDEAEYYCALWYSTHYVFGGGTKLTVLG
notes: Comparator anti-CTGF antibody, full length

Kd (Full-length human CTGF [1]): 0.247 nM and 0.25 nM
koff (Full-length human CTGF [1]): 0.00337 s⁻¹
kon (Full-length human CTGF [1]): 1.37e+07 M⁻¹ s⁻¹
Kd [2]: 30.3 nM and 30 nM
koff [2]: 0.0105 s⁻¹
kon [2]: 345000 M⁻¹ s⁻¹
B2: Antibody F1 (antibody, V domains shown)
VH: EGQLVQSGGGLVHPGGSLRLSCAGSGFTFSSYGMHWVRQAPGKGLEWVSGIGTGGGTYSTDSVKGRFTISRDNAKNSLYLQMNSLRAEDMAVYYCARGDYYGSGSFFDCWGQGTLVTVSS
VL: DIQMTQSPSSLSASVGDRVTITCRASQGISSWLAWYQQKPEKAPKSLIYAASSLQSGVPSRFSGSGSGTDFTLTISSLQPEDFATYYCQQYNSYPPTFGQGTKLEIKR
notes: as for B1

Kd (Full-length human CTGF [3]): 0.14 nM
Kd (Full-length human CTGF [1]): 0.0018 nM
koff (Full-length human CTGF [1]): 4.8e-06 s⁻¹
kon (Full-length human CTGF [1]): 2.7e+06 M⁻¹ s⁻¹
Kd [2]: 0.14 nM
koff [2]: 4e-05 s⁻¹
kon [2]: 290000 M⁻¹ s⁻¹
B3: Antibody A97 (antibody, human IgG1, kappa, L234A L235A)
light: VVMTQTPLSLSVSLGDQASISCKSSQSIVHYNGNTYLEWYLQKPGQSPQLLIYKVSSRASGVPDRFSGSGSGTDFTLKISRVEAEDLGVYYCFQGSHFPLTFGQGTKLEIKRTVAAPSVFIFPPSDEQLKSGTASVVCLLNNFYPREAKVQWKVDNALQSGNSQESVTEQDSKDSTYSLSSTLTLSKADYEKHKVYACEVTHQGLSSPVTKSFNRGEC
heavy: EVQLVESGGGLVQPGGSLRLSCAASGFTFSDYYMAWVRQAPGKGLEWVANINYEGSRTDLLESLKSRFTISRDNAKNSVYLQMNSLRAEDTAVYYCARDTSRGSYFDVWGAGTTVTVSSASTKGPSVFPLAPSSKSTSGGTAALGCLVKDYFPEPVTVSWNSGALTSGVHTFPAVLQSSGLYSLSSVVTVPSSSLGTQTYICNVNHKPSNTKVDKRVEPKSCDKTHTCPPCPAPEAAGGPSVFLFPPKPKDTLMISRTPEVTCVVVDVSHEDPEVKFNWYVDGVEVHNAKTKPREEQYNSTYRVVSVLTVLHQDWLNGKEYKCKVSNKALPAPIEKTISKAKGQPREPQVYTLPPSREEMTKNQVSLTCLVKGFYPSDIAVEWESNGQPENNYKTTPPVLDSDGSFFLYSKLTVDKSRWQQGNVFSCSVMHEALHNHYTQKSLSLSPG
notes: also called Antibody 97

Kd (Full-length human CTGF [4]): 0.25 nM
B4: A13 (antibody, human IgG1, kappa, L234A L235A)
light: B3 light with G33E, N34K
heavy: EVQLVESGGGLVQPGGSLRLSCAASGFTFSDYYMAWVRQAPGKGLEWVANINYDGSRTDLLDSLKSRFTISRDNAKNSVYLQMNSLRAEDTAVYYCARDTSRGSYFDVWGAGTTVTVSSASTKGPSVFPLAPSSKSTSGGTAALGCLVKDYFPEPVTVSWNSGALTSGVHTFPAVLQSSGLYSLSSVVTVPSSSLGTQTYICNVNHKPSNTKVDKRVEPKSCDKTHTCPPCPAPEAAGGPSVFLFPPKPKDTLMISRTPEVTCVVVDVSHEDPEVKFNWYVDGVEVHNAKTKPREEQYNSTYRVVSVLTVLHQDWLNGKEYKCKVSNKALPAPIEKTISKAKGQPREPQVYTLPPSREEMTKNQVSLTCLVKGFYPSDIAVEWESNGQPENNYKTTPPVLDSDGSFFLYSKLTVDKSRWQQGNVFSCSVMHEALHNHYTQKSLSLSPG
notes: also called antibody A13

Kd (Full-length human CTGF [1]): 0.554 nM and 0.55 nM
koff (Full-length human CTGF [1]): 0.00149 s⁻¹
kon (Full-length human CTGF [1]): 2.7e+06 M⁻¹ s⁻¹
Kd [2]: 45.7 nM and 46 nM
koff [2]: 0.0175 s⁻¹
kon [2]: 383000 M⁻¹ s⁻¹
B5: Antibody H2 (antibody, human IgG1, kappa, V domains shown)
VH: EVQLVESGGGLVQPGGSLRLSCAASGFSFNTYAMNWVRQAPGKGLEWVARIRTKSNNYATYYADSVKDRFTISRDDSESSLYLQMNSLKTEDTAVYYCVETGFAYWDQGTLVTVSS
VL: EIVLTQSPATLSLSPGERATLSCSASSSVSYMHWFQQKPGQSPKLWIYSTSNLASGVPARFSGSGSGTDYTLTISSLEPEDFAVYYCQQRSSYPLTFGQGTKLEIKR
notes: as for B1
